Columns and labels:
c-Src SH2 = assay: SH2 binding enrichment of the phosphorylated peptide, bacterial display (enrichment ratio); higher = better substrate or ligand; peptides without Tyr show the background
Grb2 SH2 = Grb2 SH2 (UniProt P62993); assay: as above
SHP2-C SH2 = assay: as above
c-Abl (mouse) = assay: phosphorylation enrichment, bacterial display (enrichment ratio); higher = better substrate or ligand; peptides without Tyr show the background
c-Src = assay: as above
FGFR1 = FGFR1 (UniProt P11362); assay: as above
Fer (mouse) = assay: as above
MERTK = MERTK (UniProt Q12866); assay: as above
Chain of MERTK (Q12866 whole entry, looked up): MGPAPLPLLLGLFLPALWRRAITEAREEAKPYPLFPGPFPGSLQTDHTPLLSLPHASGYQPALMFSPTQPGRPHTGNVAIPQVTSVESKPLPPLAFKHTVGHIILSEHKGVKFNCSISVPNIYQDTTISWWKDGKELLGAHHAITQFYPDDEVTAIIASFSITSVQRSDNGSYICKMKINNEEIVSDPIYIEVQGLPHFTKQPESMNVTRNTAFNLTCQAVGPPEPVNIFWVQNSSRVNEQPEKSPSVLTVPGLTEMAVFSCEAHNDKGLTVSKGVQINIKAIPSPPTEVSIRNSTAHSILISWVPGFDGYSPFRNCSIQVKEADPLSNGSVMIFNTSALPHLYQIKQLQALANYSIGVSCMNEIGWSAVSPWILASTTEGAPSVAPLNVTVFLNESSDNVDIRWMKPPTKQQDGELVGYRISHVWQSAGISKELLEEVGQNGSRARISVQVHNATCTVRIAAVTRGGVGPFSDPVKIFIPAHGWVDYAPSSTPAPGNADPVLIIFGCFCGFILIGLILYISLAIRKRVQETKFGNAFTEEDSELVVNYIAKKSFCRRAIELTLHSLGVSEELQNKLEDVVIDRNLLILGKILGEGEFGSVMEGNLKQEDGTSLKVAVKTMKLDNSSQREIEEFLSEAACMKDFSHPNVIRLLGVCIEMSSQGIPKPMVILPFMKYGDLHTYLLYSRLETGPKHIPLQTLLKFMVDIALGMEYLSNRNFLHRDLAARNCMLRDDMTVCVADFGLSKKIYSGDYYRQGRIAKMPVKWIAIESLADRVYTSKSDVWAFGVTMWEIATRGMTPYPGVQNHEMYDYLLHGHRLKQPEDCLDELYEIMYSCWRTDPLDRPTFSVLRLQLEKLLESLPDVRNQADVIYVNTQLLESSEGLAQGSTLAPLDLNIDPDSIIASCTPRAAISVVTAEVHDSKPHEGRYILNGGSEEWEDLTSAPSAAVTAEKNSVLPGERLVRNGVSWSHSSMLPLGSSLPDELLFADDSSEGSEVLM

EPHB2 = EPHB2 (UniProt P29323); assay: as above
Fes = Fes (UniProt P07332); assay: as above
Chain of Fes (P07332 whole entry, looked up): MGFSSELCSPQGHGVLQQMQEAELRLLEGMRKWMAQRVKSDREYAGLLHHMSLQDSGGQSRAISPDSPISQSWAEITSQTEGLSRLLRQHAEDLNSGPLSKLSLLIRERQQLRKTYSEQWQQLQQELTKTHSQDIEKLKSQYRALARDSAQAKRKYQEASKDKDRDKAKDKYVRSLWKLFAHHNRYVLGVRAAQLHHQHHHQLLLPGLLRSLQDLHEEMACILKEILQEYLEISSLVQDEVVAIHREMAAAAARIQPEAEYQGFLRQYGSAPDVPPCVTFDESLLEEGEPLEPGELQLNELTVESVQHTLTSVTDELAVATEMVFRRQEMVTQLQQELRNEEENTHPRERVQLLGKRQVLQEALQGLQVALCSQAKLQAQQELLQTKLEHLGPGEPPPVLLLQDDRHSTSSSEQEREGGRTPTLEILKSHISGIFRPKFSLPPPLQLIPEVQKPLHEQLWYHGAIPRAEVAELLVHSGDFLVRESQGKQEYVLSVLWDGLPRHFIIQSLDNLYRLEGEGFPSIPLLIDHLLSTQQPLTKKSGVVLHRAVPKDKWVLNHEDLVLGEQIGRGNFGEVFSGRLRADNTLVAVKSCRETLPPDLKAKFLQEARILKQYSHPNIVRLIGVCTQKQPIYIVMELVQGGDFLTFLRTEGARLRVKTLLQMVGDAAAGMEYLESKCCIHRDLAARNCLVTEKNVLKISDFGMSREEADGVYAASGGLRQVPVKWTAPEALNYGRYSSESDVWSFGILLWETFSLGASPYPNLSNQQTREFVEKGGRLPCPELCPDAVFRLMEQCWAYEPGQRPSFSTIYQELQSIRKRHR

Hck = Hck (UniProt P08631); assay: as above
Chain of Hck (P08631 whole entry, looked up): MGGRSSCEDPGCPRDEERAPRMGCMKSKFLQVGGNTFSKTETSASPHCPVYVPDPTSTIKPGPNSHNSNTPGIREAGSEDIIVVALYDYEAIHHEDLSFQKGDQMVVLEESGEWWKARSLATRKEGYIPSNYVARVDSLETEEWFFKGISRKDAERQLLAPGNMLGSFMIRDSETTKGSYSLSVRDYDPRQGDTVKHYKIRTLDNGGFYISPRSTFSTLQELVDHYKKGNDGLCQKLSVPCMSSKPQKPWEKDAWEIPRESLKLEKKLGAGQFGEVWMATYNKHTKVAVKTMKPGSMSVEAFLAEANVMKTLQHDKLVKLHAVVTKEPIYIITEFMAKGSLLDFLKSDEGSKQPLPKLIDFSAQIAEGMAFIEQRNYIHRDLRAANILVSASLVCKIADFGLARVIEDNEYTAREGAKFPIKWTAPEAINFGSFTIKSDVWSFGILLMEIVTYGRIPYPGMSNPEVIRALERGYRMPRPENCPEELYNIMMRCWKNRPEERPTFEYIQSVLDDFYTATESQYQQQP

FGFR3 = FGFR3 (UniProt P22607); assay: as above
Chain of FGFR3 (P22607 whole entry, looked up): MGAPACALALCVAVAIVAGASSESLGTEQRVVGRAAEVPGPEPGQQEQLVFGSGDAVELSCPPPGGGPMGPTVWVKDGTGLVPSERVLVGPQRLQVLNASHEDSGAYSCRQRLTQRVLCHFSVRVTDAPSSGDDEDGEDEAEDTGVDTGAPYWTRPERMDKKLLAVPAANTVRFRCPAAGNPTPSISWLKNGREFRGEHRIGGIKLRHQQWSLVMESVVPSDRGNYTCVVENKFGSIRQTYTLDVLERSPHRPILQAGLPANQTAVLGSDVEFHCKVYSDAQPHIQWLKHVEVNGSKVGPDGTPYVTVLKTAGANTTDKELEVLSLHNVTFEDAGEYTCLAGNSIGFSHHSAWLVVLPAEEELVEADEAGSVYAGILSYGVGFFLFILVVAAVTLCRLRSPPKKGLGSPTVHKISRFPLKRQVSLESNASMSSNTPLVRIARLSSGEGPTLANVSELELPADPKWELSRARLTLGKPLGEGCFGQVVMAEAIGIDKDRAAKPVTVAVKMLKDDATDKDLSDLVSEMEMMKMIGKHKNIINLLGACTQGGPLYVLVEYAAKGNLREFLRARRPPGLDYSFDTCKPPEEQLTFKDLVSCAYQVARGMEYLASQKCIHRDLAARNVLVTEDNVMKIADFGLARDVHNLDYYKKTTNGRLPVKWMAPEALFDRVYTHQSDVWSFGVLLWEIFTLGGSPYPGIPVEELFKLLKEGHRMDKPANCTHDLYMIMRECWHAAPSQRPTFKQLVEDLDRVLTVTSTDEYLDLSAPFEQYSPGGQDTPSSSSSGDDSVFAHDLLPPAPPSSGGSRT

Jak2 = Jak2 (UniProt O60674); assay: as above
Chain of Jak2 (O60674 whole entry, looked up): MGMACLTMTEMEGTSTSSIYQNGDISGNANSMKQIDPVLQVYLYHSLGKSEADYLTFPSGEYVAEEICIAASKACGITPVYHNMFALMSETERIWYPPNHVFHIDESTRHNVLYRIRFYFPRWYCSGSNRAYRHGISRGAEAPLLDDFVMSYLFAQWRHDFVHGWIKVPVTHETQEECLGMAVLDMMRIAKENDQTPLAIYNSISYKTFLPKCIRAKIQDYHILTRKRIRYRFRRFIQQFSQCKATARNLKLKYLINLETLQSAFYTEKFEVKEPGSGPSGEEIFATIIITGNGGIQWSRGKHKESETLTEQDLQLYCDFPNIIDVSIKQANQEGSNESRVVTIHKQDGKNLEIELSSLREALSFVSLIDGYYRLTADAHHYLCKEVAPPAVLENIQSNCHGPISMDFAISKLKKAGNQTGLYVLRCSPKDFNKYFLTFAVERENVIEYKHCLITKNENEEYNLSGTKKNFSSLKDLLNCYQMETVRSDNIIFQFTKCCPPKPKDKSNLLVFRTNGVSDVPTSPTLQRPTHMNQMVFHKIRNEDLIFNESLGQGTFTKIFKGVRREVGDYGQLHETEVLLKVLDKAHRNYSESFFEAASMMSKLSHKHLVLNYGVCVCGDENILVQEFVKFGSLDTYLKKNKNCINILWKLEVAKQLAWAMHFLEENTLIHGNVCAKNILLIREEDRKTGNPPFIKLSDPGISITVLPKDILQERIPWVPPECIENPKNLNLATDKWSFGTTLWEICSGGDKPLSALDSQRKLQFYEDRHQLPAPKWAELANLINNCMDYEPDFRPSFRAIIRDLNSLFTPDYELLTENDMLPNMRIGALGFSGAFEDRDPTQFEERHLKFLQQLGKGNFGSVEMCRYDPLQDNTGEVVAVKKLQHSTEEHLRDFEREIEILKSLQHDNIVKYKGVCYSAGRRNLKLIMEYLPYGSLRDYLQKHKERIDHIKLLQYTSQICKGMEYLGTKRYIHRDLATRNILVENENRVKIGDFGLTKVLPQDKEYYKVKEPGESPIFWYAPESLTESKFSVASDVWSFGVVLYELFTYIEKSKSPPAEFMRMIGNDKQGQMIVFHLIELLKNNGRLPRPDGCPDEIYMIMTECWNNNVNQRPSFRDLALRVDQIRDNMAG

Fyn = Fyn (UniProt P06241); assay: as above
Chain of Fyn (P06241 whole entry, looked up): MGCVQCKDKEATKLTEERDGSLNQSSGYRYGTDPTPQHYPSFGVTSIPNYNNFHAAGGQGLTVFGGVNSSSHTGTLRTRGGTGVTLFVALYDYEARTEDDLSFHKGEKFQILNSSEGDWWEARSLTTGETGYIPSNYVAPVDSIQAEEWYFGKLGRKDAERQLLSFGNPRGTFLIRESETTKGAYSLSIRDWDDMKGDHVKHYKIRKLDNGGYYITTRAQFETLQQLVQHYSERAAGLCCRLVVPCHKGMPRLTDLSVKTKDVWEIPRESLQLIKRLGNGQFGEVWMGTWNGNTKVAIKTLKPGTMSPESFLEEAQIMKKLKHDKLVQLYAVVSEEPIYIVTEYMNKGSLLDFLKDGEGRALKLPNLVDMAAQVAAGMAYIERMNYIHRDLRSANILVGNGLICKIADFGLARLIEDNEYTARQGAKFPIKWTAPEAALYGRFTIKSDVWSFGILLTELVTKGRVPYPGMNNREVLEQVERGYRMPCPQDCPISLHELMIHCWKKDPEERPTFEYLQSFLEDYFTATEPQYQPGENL

EPHB1 = EPHB1 (UniProt P54762); assay: as above
AncSZ = assay: as above
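For SH2 binding enrichment of the phosphorylated peptide, bacterial display in this document: peptide library displayed on the E. coli surface as eCPX fusions, selected cells deep-sequenced, score is each peptide's frequency after selection divided by its frequency in the input.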
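For phosphorylation enrichment, bacterial display in this document: 11-residue human phosphosite peptides and single-mutation variants displayed on the E. coli surface, counted by deep sequencing, each peptide's frequency after selection divided by its frequency in the unselected input library; frequency after pTyr selection over input frequency; kinase dosed for 20-30% of maximal phosphorylation in three min.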

| Sequence | SH2 binding enrichment (c-Src SH2) | SH2 binding enrichment (Grb2 SH2) | SH2 binding enrichment (SHP2-C SH2) | phosphorylation enrichment (c-Abl (mouse)) | phosphorylation enrichment (c-Src) | phosphorylation enrichment (FGFR1) | phosphorylation enrichment (Fer (mouse)) | phosphorylation enrichment (MERTK) | phosphorylation enrichment (EPHB2) | phosphorylation enrichment (Fes) | phosphorylation enrichment (Hck) | phosphorylation enrichment (FGFR3) | phosphorylation enrichment (Jak2) | phosphorylation enrichment (Fyn) | phosphorylation enrichment (EPHB1) | phosphorylation enrichment (AncSZ) |
| --- | --- | --- | --- | --- | --- | --- | --- | --- | --- | --- | --- | --- | --- | --- | --- | --- |
| TEIGQYGNGLK [MORC2_Y100_Q96E] | 0.51 | 0.662 | 0.432 | 0.556 | 0.331 | 0.404 | 0.394 | 0.354 | 0.434 | 0.579 | 0.448 | 0.499 | 0.588 | 0.393 | 0.543 | 0.522 |
| TESALYGCTVV [KIAA1804_Y724_L729V] | 0.336 | 0.685 | 0.657 | 0.888 | 4.43 | 0.517 | 5 | 1.83 | 0.833 | 1.43 | 4.37 | 0.802 | 1.17 | 5.73 | 0.783 | 1.18 |
| TFRPPYFHRDC [HGD_Y333_N337D_YF] | 0.93 | 1.18 | 0.741 | 0.587 | 0.558 | 0.496 | 0.422 | 0.424 | 0.431 | 0.847 | 0.454 | 2 | 0.685 | 0.427 | 0.432 | 0.617 |
| TFVVLYDAELT [ERCC4_Y581_R576T_YF] | 0.893 | 1.38 | 1.73 | 0.979 | 0.596 | 0.696 | 0.669 | 0.724 | 1.03 | 1.61 | 0.568 | 0.92 | 1.49 | 0.712 | 1.18 | 1.31 |
| TFWKKYRTFWK [CCDC70_Y125] | 0.517 | 0.843 | 1.18 | 0.723 | 0.664 | 0.403 | 0.409 | 0.446 | 0.308 | 0.8 | 0.371 | 0.555 | 0.934 | 0.46 | 0.472 | 0.702 |
| TIAIRYSHSRR [ACOXL_Y260] | 0.495 | 0.608 | 0.44 | 0.655 | 0.691 | 0.536 | 0.632 | 0.648 | 0.622 | 0.918 | 0.576 | 0.599 | 0.785 | 0.644 | 0.363 | 0.746 |
| TIMTNYNPNFC [ALK_Y1092_D1091N_YF] | 0.478 | 0.775 | 0.531 | 0.716 | 0.533 | 0.576 | 0.512 | 0.485 | 0.784 | 1.06 | 0.5 | 0.694 | 0.865 | 0.545 | 0.43 | 0.987 |
| TISPFYRQSLF [CRYAA_Y48_YF] | 0.612 | 0.85 | 0.706 | 0.49 | 0.395 | 0.448 | 0.369 | 0.467 | 0.528 | 0.76 | 0.396 | 0.489 | 0.693 | 0.437 | 0.435 | 0.648 |
| TKDTFYQQPMF [GBA_Y451_K452Q] | 0.902 | 0.793 | 0.637 | 3.38 | 0.639 | 0.605 | 2.41 | 4.31 | 2.01 | 0.805 | 0.91 | 0.589 | 0.648 | 0.664 | 0.583 | 1.07 |
| TKFRNYLIPNG [CYP2C8_Y379_K383N] | 0.462 | 0.946 | 0.724 | 0.631 | 0.484 | 0.458 | 0.394 | 0.495 | 0.736 | 0.679 | 0.432 | 0.502 | 0.536 | 0.553 | 0.527 | 0.68 |
| TLMNAYSSRSH [KIF11_Y231] | 0.427 | 0.707 | 0.552 | 0.57 | 0.54 | 0.449 | 0.514 | 0.636 | 0.517 | 0.579 | 0.516 | 0.44 | 1.08 | 0.517 | 0.436 | 0.675 |
| TLNTNYHLPPS [MT-ATP8_Y33_M28T] | 0.483 | 0.761 | 0.608 | 0.655 | 0.403 | 2.51 | 0.372 | 0.57 | 0.451 | 0.587 | 0.343 | 1.69 | 0.485 | 0.47 | 1.37 | 0.698 |
| TLQWMYGCDVG [HLA-B_Y123_S121W] | 0.446 | 0.772 | 0.657 | 1.05 | 0.354 | 0.396 | 0.566 | 0.38 | 0.661 | 1.34 | 0.485 | 0.814 | 1.22 | 0.437 | 0.744 | 1.2 |
| TLSGTYQFIIA [FOXL2_Y81_I80T_YF] | 1.11 | 0.968 | 1.13 | 0.611 | 0.892 | 2.22 | 1.44 | 2.89 | 0.924 | 1.05 | 1.34 | 1.9 | 0.732 | 0.814 | 1.31 | 1.27 |
| TNQVIYLNPPI [DYNC1H1_Y970] | 0.459 | 0.819 | 0.99 | 13.9 | 0.743 | 3.51 | 0.473 | 3.71 | 4.73 | 0.77 | 1.45 | 2.94 | 0.706 | 0.62 | 7.69 | 0.849 |
| TQTPPYVKKHP [LARP1B_Y457] | 0.629 | 1.01 | 0.821 | 0.514 | 0.488 | 0.34 | 0.439 | 0.466 | 0.39 | 0.624 | 0.357 | 0.521 | 0.593 | 0.459 | 0.458 | 0.677 |
| TRSYDYMEGED [FGF7_Y58_G62E] | 10.4 | 0.977 | 1.05 | 0.919 | 0.574 | 5.52 | 0.645 | 0.591 | 0.634 | 1.47 | 0.549 | 0.869 | 1.51 | 0.607 | 0.711 | 1.41 |
| TVDASYCGGRG [ANTXR2_Y380_Y381C] | 0.567 | 0.757 | 0.914 | 0.465 | 0.351 | 0.496 | 0.402 | 0.452 | 0.516 | 0.695 | 0.436 | 0.437 | 0.558 | 0.383 | 0.393 | 0.558 |

Now from value to sequence, other results behind:

| SH2 binding enrichment (c-Src SH2) | SH2 binding enrichment (Grb2 SH2) | SH2 binding enrichment (SHP2-C SH2) | Sequence | phosphorylation enrichment (c-Abl (mouse)) | phosphorylation enrichment (c-Src) | phosphorylation enrichment (FGFR1) | phosphorylation enrichment (Fer (mouse)) | phosphorylation enrichment (MERTK) | phosphorylation enrichment (EPHB2) | phosphorylation enrichment (Fes) | phosphorylation enrichment (Hck) | phosphorylation enrichment (FGFR3) | phosphorylation enrichment (Jak2) | phosphorylation enrichment (Fyn) | phosphorylation enrichment (EPHB1) | phosphorylation enrichment (AncSZ) |
| --- | --- | --- | --- | --- | --- | --- | --- | --- | --- | --- | --- | --- | --- | --- | --- | --- |
| 0.449 | 0.577 | 0.575 | TDGIAYEFRVT | 0.933 | 0.491 | 0.528 | 0.639 | 0.403 | 0.582 | 1.51 | 0.49 | 0.916 | 1.37 | 0.487 | 0.608 | 1.36 |
| 0.436 | 0.661 | 0.616 | TDISLYPSGGT [TENM4_Y399_V396I] | 0.528 | 0.391 | 0.457 | 0.39 | 0.394 | 0.632 | 0.84 | 0.398 | 0.536 | 0.657 | 0.414 | 0.46 | 0.637 |
| 0.333 | 0.61 | 0.654 | TENAGYFFQVS | 0.89 | 0.384 | 0.714 | 0.414 | 0.397 | 0.546 | 1.08 | 0.442 | 0.774 | 1.21 | 0.435 | 0.482 | 1.11 |
| 0.829 | 0.852 | 0.737 | TEVRRYVLPLN [RPE65_Y368_P363T] | 0.526 | 0.38 | 0.482 | 0.514 | 0.401 | 0.4 | 0.887 | 0.407 | 0.785 | 0.661 | 0.412 | 0.377 | 0.649 |
| 0.999 | 1.05 | 1.16 | TKAEKYVNKPK [PLCG1_Y991_A995P] | 0.942 | 0.467 | 0.594 | 0.442 | 0.423 | 0.376 | 0.714 | 0.559 | 0.534 | 0.596 | 0.398 | 0.336 | 0.72 |
| 0.698 | 0.98 | 0.767 | TKQLTYEEQFL [PIK3C3_Y310_D314Y_YF] | 0.661 | 0.5 | 0.497 | 1.03 | 0.502 | 0.622 | 1.08 | 0.419 | 0.65 | 0.861 | 0.509 | 0.611 | 1.1 |
| 0.786 | 0.898 | 0.896 | TLNFCYQQVKS [PTK2_Y148_F147C] | 0.936 | 0.524 | 0.617 | 0.501 | 0.399 | 0.709 | 1.28 | 0.52 | 0.884 | 1.07 | 0.44 | 0.718 | 1.25 |
| 0.591 | 0.894 | 0.802 | TNLVPYPCIHF [TUBA1A_Y262_R264C] | 0.646 | 0.519 | 0.546 | 0.517 | 0.578 | 0.557 | 0.96 | 0.534 | 0.66 | 0.753 | 0.492 | 0.599 | 0.975 |
| 2.64 | 1.05 | 40.4 | TNLVPYTRIHF [TUBA1A_Y262_P263T] | 0.469 | 0.441 | 0.468 | 0.385 | 0.374 | 0.423 | 0.829 | 0.487 | 0.506 | 0.682 | 0.45 | 0.455 | 0.765 |
| 0.591 | 0.9 | 1.09 | TNYRLYLRSLE [MTM1_Y71] | 1.31 | 0.504 | 0.595 | 0.524 | 0.554 | 0.556 | 1.3 | 0.555 | 0.776 | 1.22 | 0.552 | 0.666 | 1.11 |
| 0.494 | 0.91 | 0.82 | TQPSPYAVFLF [RPGRIP1_Y823_R827L_YF] | 15.1 | 5.76 | 1.28 | 7.3 | 7.59 | 1.28 | 0.915 | 3.69 | 0.942 | 0.926 | 6.88 | 2.12 | 0.826 |
| 0.815 | 1.09 | 0.872 | TRSYKCLLLSM [NF1_Y491_Y491C] | 0.637 | 0.401 | 0.375 | 0.402 | 0.434 | 0.487 | 0.94 | 0.441 | 0.619 | 0.784 | 0.425 | 0.486 | 0.979 |
| 0.732 | 0.939 | 0.635 | TSYSGYRCHRH [NKAPL_Y94_Y96C] | 0.528 | 0.433 | 0.63 | 0.31 | 0.509 | 0.477 | 0.695 | 0.5 | 0.584 | 0.678 | 0.352 | 0.386 | 0.694 |
| 0.465 | 0.921 | 0.597 | TTTQAYRVDER [PRKN_Y391] | 0.714 | 0.389 | 0.446 | 0.479 | 0.404 | 0.439 | 0.758 | 0.446 | 0.512 | 0.57 | 0.482 | 0.473 | 0.709 |
| 0.713 | 1.05 | 1.16 | TVLEHYRRTHC [MYBPC3_Y1119] | 0.532 | 0.395 | 0.438 | 0.408 | 0.569 | 0.681 | 0.672 | 0.5 | 0.519 | 0.606 | 0.52 | 0.468 | 0.526 |

— the supplement of paper PMC10065799, “High-throughput profiling of sequence recognition by tyrosine kinases and SH2 domains using bacterial peptide display” (eLife, 2023)
